Laboratory results taken from paper PMC8442866, “Ultrafast pore-loop dynamics in a AAA+ machine point to a Brownian-ratchet mechanism for protein translocation” (Science Advances, 2021).

Assays:
[1] = system: T1, Nc1ncnc2c1ncn2[C@@H]1O[C@H](COP(=O)(O)OP(=O)(O)OP(=O)(O)O)[C@@H](O)[C@H]1O; assay: coupled pyruvate kinase/lactate dehydrogenase NADH ATPase assay, Hill fit; format: biochemical, Thermus thermophilus; details: 10 mM MgCl2, 25 mM Hepes pH 7.8, 25 mM KCl, 0.01% Tween 20, 25 °C, ATP 50 μM to 3 mM, 1 μM ClpB
T1 construct: N-terminal domain removed, starts at residue 141; His6 tag with TEV site (pET28b); expressed in E. coli BL21 (DE3) pLysS; homohexamer
Text: coupled pyruvate kinase/lactate dehydrogenase NADH ATPase assay, Hill fit on ΔN-ClpB (ClpB) | plotted as a function of ATP concentration and fitted to the Hill equation

[2] = molecular target: ClpB hexamer assembled with a single double-labeled S236C-S359C protomer (PL1 variant) (Thermus thermophilus) (UniProt Q9RA63)
ClpB hexamer assembled with a single double-labeled S236C-S359C protomer (PL1 variant) (Thermus thermophilus), sequence (Q9RA63 141-854 S236C/S359C, chain 1 of 2): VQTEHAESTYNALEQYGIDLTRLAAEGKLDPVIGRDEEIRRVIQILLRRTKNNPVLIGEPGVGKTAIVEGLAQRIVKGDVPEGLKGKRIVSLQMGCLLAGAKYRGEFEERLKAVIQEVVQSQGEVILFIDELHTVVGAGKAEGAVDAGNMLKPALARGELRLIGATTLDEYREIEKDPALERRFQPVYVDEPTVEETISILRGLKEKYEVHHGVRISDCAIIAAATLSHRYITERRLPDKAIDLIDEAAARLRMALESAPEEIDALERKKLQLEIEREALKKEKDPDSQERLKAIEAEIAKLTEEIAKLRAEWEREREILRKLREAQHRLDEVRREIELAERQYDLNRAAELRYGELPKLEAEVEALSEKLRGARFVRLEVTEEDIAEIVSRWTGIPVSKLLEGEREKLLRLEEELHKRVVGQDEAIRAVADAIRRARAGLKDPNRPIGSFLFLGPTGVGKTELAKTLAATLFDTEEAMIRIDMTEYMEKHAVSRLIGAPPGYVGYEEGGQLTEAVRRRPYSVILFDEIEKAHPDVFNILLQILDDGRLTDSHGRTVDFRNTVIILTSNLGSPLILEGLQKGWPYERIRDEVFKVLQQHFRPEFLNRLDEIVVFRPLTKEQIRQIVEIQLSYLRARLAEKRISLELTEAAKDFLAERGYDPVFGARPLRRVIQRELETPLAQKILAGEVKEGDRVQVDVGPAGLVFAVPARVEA
ClpB hexamer assembled with a single double-labeled S236C-S359C protomer (PL1 variant) (Thermus thermophilus), sequence (Q9RA63 141-854, stated change not applied, chain 2 of 2): as the sequence (Q9RA63 141-854 S236C/S359C, chain 1 of 2) above, with C96S, C219S counted along it

[3] = molecular target: ClpB hexamer assembled with a single double-labeled S359C-Y646C protomer (PL3 variant) (Thermus thermophilus) (UniProt Q9RA63)
ClpB hexamer assembled with a single double-labeled S359C-Y646C protomer (PL3 variant) (Thermus thermophilus), sequence (Q9RA63 141-854 S359C/Y646C, chain 1 of 2): as the sequence (Q9RA63 141-854 S236C/S359C, chain 1 of 2) above, with C96S, Y506C counted along it
ClpB hexamer assembled with a single double-labeled S359C-Y646C protomer (PL3 variant) (Thermus thermophilus), sequence (Q9RA63 141-854, stated change not applied, chain 2 of 2): as the sequence (Q9RA63 141-854 S236C/S359C, chain 1 of 2) above, with C96S, C219S counted along it

[4] = molecular target: ClpB hexamer assembled with a single double-labeled S236C-S359C protomer (PL1 variant) (Thermus thermophilus) (UniProt Q9RA63); remark: listed apart in the source

ΔN-ClpB (ClpB) (Thermus thermophilus HB8), sequence (chain, as listed by the source mutant): as the sequence (Q9RA63 141-854 S236C/S359C, chain 1 of 2) above, with C96S, C219S counted along it

smFRET with two-state H2MM analysis, 2 mM ATP: population ratio K12^1 of the two PL1 states without and with 20 μM κ-casein [2] | smFRET: substrate-response factor R3 (ratio of K12^3 with and without 20 μM κ-casein), with ADP [3] | smFRET: substrate-response factor R3 (ratio of K12^3 with and without 20 μM κ-casein), with ATP [3] | smFRET: substrate-response factor R3 (ratio of K12^3 with and without 20 μM κ-casein), with ATPγS [3] | smFRET: substrate-response factor R1 (ratio of K12^1 with and without 20 μM κ-casein), with ATP [4] | Substance | K0.5 [1] [µM]
 |  |  |  |  | ΔN-ClpB (ClpB) (Thermus thermophilus HB8) | 300 ± 20
0.81 | 1.71 | 2.28 | 1.34 | 1.68 | κ-casein (from UniProt P02668 22-190) (natural protein) | 
